# Source: patent JP2019026625A (dated 2019)
# T1: FLAGタグとイヌCD20の融合タンパク (Jurkat/cCD20 に過剰発現) (イヌ (dog), UniProt Q3C2E2 1-297)
# T1 construct: whole, on cells; Overexpressed in Jurkat cells by retroviral transduction (pMx-IP); Used whole on cells for flow cytometry and as 1% NP40 cell lysate for immunoprecipitation; also called canine CD20-FLAG; not shown: FLAG tag added at the C-terminus
# T1 sequence (looked up): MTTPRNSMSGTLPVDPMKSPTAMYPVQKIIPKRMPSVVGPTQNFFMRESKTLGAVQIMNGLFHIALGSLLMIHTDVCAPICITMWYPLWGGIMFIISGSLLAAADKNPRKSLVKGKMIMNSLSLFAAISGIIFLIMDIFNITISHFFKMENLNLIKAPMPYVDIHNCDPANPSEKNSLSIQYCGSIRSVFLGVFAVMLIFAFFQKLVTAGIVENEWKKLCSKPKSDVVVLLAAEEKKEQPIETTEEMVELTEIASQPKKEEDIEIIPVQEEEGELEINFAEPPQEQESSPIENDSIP
# B1: 4E1-7抗体 (イヌCD20に対するラットモノクローナル抗体) (antibody, V domains shown)
# VH: EVQLVESGGGLVQPGASLKLSCVASGFTFNDYWMSWVRQTPGKTMEWIGDIKYDGSYTNYAPSLKNRFTISRDNAKSTLYLQMSNVRSEDTATYYCTREAYYYSGDYWGQGVMVTVSS
# VL: DIVLTQSPALAVSLGQRATISCKTNQNVDYYGNSYMHWYQQKPGQQPKLLIYLASNLASGIPARFSGRGSGTDFTLTIDPVEADDTATYYCQQSRNLPYTFGAGTKLELKR
# notes: also called 4E1-7 antibody
# Target: T1, FLAGタグとイヌCD20の融合タンパク (Jurkat/cCD20 …)
# Assay: flow cytometry on Jurkat/cCD20 cells, secondary antibody
binder,measurement,value
B1,binding result,binds
